In the supplement of paper PMC9112550, “Optimization of the antimicrobial peptide Bac7 by deep mutational scanning” (BMC Biology, 2022):

System: Escherichia coli TOP10
Experiment: shrunken log2 fold change of peptide-encoding DNA abundance (4.5 h post-induction vs induction); higher = less antimicrobial activity (less host growth inhibition)
Settings: time post-induction: 4.5 h; library: site-saturation at positions 5, 18, 19, 20
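Note: peptides expressed intracellularly from a pBAD plasmid library in pooled LB shake-flask culture, induced with 0.3% L-arabinose, DNA abundance read by NGS, three biological replicates, DESeq2 with apeglm shrinkage.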

RRIRYRPPRLPRPRPRPHRNPRP and RRIRHRPPRLPRPRPRPSMDPRP are within 0.2 log units of each other in “shrunken log2 fold change” value: -0.745 for the first, -0.828 for the second.

First: RRIRDRPPRLPRPRPRPNWLPRP
Second: RRIRIRPPRLPRPRPRPKQYPRP
The “shrunken log2 fold change” value of the first is higher: 0.0018 for the first, -0.474 for the second.

RRIRNRPPRLPRPRPRPLLGPRP and RRIRTRPPRLPRPRPRPRPMPRP are within 0.2 log units of each other in “shrunken log2 fold change” value: 0.232 for the first, 0.184 for the second.

First: RRIRKRPPRLPRPRPRPALLPRP
Second: RRIRSRPPRLPRPRPRPEPRPRP
The “shrunken log2 fold change” value of the first is lower: 0.246 for the first, 0.586 for the second.

RRIRRRPPRLPRPRPRPKMAPRP and RRIRRRPPRLPRPRPRPFGFPRP are within 0.2 log units of each other in “shrunken log2 fold change” value: 0.201 for the first, 0.197 for the second.

RRIRPRPPRLPRPRPRPGSHPRP and RRIRDRPPRLPRPRPRPAVGPRP are within 0.2 log units of each other in “shrunken log2 fold change” value: 0.142 for the first, 0.148 for the second.

Compared with RRIRWRPPRLPRPRPRPTSIPRP, RRIRHRPPRLPRPRPRPNHSPRP is lower in “shrunken log2 fold change” value: -0.22 for the first, -0.785 for the second.

RRIRRRPPRLPRPRPRPSEWPRP and RRIRMRPPRLPRPRPRPFACPRP are within 0.2 log units of each other in “shrunken log2 fold change” value: -0.15 for the first, -0.1 for the second.

RRIRQRPPRLPRPRPRPQKQPRP and RRIRNRPPRLPRPRPRPIEIPRP are within 0.2 log units of each other in “shrunken log2 fold change” value: 0.057 for the first, 0.0194 for the second.

Compared with RRIRNRPPRLPRPRPRPWCYPRP, RRIRARPPRLPRPRPRPCTHPRP is higher in “shrunken log2 fold change” value: -0.428 for the first, -0.182 for the second.

Compared with RRIRRRPPRLPRPRPRPENAPRP, RRIRLRPPRLPRPRPRPTWGPRP is higher in “shrunken log2 fold change” value: 0.115 for the first, 0.637 for the second.

RRIRDRPPRLPRPRPRPRHHPRP and RRIRDRPPRLPRPRPRPVQCPRP are within 0.2 log units of each other in “shrunken log2 fold change” value: -0.043 for the first, -0.242 for the second.

RRIRPRPPRLPRPRPRPTKMPRP and RRIRCRPPRLPRPRPRPWQKPRP are within 0.2 log units of each other in “shrunken log2 fold change” value: 0.0417 for the first, -0.0588 for the second.

RRIRVRPPRLPRPRPRPYGHPRP and RRIRVRPPRLPRPRPRPRDYPRP are within 0.2 log units of each other in “shrunken log2 fold change” value: -0.0167 for the first, -0.0816 for the second.

Going from RRIRRRPPRLPRPRPRPPENPRP to RRIRTRPPRLPRPRPRPCSRPRP, the “shrunken log2 fold change” value falls from 0.615 to -0.182.

RRIRTRPPRLPRPRPRPDVLPRP and RRIRVRPPRLPRPRPRPTKIPRP are within 0.2 log units of each other in “shrunken log2 fold change” value: -0.208 for the first, -0.321 for the second.

RRIRKRPPRLPRPRPRPGELPRP and RRIRARPPRLPRPRPRPWYWPRP are within 0.2 log units of each other in “shrunken log2 fold change” value: -0.012 for the first, 0.0283 for the second.

Going from RRIRGRPPRLPRPRPRPVCVPRP to RRIRTRPPRLPRPRPRPDNEPRP, the “shrunken log2 fold change” value falls from 0.891 to -0.248.

Going from RRIRARPPRLPRPRPRPNQGPRP to RRIRERPPRLPRPRPRPFENPRP, the “shrunken log2 fold change” value falls from 0.392 to -0.01.

First: RRIRCRPPRLPRPRPRPFVGPRP
Second: RRIRDRPPRLPRPRPRPKLQPRP
The “shrunken log2 fold change” value of the first is lower: -0.315 for the first, 0.08 for the second.

Compared with RRIRVRPPRLPRPRPRPLQVPRP, RRIRCRPPRLPRPRPRPSSQPRP is lower in “shrunken log2 fold change” value: -0.0194 for the first, -0.377 for the second.

RRIRPRPPRLPRPRPRPKPMPRP and RRIRNRPPRLPRPRPRPDGYPRP are within 0.2 log units of each other in “shrunken log2 fold change” value: 0.218 for the first, 0.171 for the second.

RRIRHRPPRLPRPRPRPREDPRP and RRIRIRPPRLPRPRPRPLTAPRP are within 0.2 log units of each other in “shrunken log2 fold change” value: -0.0018 for the first, 0.00505 for the second.

First: RRIRKRPPRLPRPRPRPHTRPRP
Second: RRIRVRPPRLPRPRPRPQQKPRP
The “shrunken log2 fold change” value of the first is higher: 0.29 for the first, -0.027 for the second.

Going from RRIRVRPPRLPRPRPRPLQGPRP to RRIRSRPPRLPRPRPRPETWPRP, the “shrunken log2 fold change” value rises from -0.292 to -0.0382.

RRIRERPPRLPRPRPRPSKMPRP and RRIRLRPPRLPRPRPRPPQFPRP are within 0.2 log units of each other in “shrunken log2 fold change” value: -0.141 for the first, -0.165 for the second.

Going from RRIRPRPPRLPRPRPRPSDKPRP to RRIRSRPPRLPRPRPRPDSDPRP, the “shrunken log2 fold change” value rises from -0.264 to 0.051.

RRIRWRPPRLPRPRPRPMAHPRP and RRIRSRPPRLPRPRPRPGHTPRP are within 0.2 log units of each other in “shrunken log2 fold change” value: 0.0444 for the first, 0.0898 for the second.

Going from RRIRGRPPRLPRPRPRPPKDPRP to RRIRIRPPRLPRPRPRPGGVPRP, the “shrunken log2 fold change” value falls from 0.799 to 0.0574.

Compared with RRIRVRPPRLPRPRPRPWNVPRP, RRIRRRPPRLPRPRPRPKPIPRP is higher in “shrunken log2 fold change” value: -0.0441 for the first, 0.357 for the second.

First: RRIRDRPPRLPRPRPRPISMPRP
Second: RRIRKRPPRLPRPRPRPMWRPRP
The “shrunken log2 fold change” value of the first is lower: 0.0543 for the first, 0.481 for the second.

RRIRTRPPRLPRPRPRPKLLPRP and RRIRPRPPRLPRPRPRPTIFPRP are within 0.2 log units of each other in “shrunken log2 fold change” value: 0.272 for the first, 0.0842 for the second.

Compared with RRIRERPPRLPRPRPRPHGDPRP, RRIRHRPPRLPRPRPRPKHNPRP is higher in “shrunken log2 fold change” value: -0.0135 for the first, 0.196 for the second.

RRIRDRPPRLPRPRPRPCSVPRP and RRIRSRPPRLPRPRPRPFWEPRP are within 0.2 log units of each other in “shrunken log2 fold change” value: -0.0368 for the first, 0.0122 for the second.

RRIRMRPPRLPRPRPRPFNIPRP and RRIRIRPPRLPRPRPRPWFWPRP are within 0.2 log units of each other in “shrunken log2 fold change” value: -0.3 for the first, -0.313 for the second.

First: RRIRYRPPRLPRPRPRPTIWPRP
Second: RRIRTRPPRLPRPRPRPEMLPRP
The “shrunken log2 fold change” value of the first is lower: -0.196 for the first, 0.0362 for the second.

Compared with RRIRFRPPRLPRPRPRPDAKPRP, RRIRCRPPRLPRPRPRPLLLPRP is lower in “shrunken log2 fold change” value: 0.417 for the first, -0.265 for the second.

RRIRERPPRLPRPRPRPPEWPRP and RRIRVRPPRLPRPRPRPMLWPRP are within 0.2 log units of each other in “shrunken log2 fold change” value: -0.0429 for the first, 0.0613 for the second.

First: RRIRFRPPRLPRPRPRPTLNPRP
Second: RRIRDRPPRLPRPRPRPLDGPRP
The “shrunken log2 fold change” value of the first is lower: -0.254 for the first, 0.0131 for the second.

First: RRIRLRPPRLPRPRPRPVWNPRP
Second: RRIRYRPPRLPRPRPRPWDGPRP
The “shrunken log2 fold change” value of the first is higher: 0.2 for the first, -0.196 for the second.

Going from RRIRDRPPRLPRPRPRPNQPPRP to RRIRWRPPRLPRPRPRPSNTPRP, the “shrunken log2 fold change” value falls from 0.0323 to -0.355.

Going from RRIRMRPPRLPRPRPRPHPMPRP to RRIRHRPPRLPRPRPRPSEEPRP, the “shrunken log2 fold change” value falls from 2.74 to -0.00149.

Going from RRIRKRPPRLPRPRPRPICKPRP to RRIRIRPPRLPRPRPRPAEWPRP, the “shrunken log2 fold change” value falls from 0.363 to -0.124.

Compared with RRIRYRPPRLPRPRPRPMFFPRP, RRIRNRPPRLPRPRPRPHGIPRP is higher in “shrunken log2 fold change” value: -0.618 for the first, -0.154 for the second.

First: RRIRNRPPRLPRPRPRPQKWPRP
Second: RRIRPRPPRLPRPRPRPRGCPRP
The “shrunken log2 fold change” value of the first is lower: -0.0202 for the first, 0.251 for the second.

RRIRPRPPRLPRPRPRPLSWPRP and RRIRVRPPRLPRPRPRPENAPRP are within 0.2 log units of each other in “shrunken log2 fold change” value: 0.238 for the first, 0.173 for the second.

RRIRYRPPRLPRPRPRPRRWPRP and RRIRFRPPRLPRPRPRPMTWPRP are within 0.2 log units of each other in “shrunken log2 fold change” value: 0.309 for the first, 0.478 for the second.

Going from RRIRCRPPRLPRPRPRPTTIPRP to RRIRMRPPRLPRPRPRPSHAPRP, the “shrunken log2 fold change” value rises from -0.492 to 0.282.

RRIRRRPPRLPRPRPRPVCVPRP and RRIRERPPRLPRPRPRPTPGPRP are within 0.2 log units of each other in “shrunken log2 fold change” value: 0.359 for the first, 0.337 for the second.

Compared with RRIRIRPPRLPRPRPRPNPTPRP, RRIRFRPPRLPRPRPRPYREPRP is lower in “shrunken log2 fold change” value: -0.17 for the first, -0.468 for the second.

RRIRNRPPRLPRPRPRPFGGPRP and RRIRERPPRLPRPRPRPPYSPRP are within 0.2 log units of each other in “shrunken log2 fold change” value: -0.133 for the first, -0.102 for the second.

Going from RRIRFRPPRLPRPRPRPTEHPRP to RRIRGRPPRLPRPRPRPLYTPRP, the “shrunken log2 fold change” value rises from -0.316 to 0.145.

Compared with RRIRSRPPRLPRPRPRPDHTPRP, RRIRSRPPRLPRPRPRPFFDPRP is higher in “shrunken log2 fold change” value: -0.407 for the first, 0.192 for the second.

RRIRFRPPRLPRPRPRPHWCPRP and RRIRQRPPRLPRPRPRPLPYPRP are within 0.2 log units of each other in “shrunken log2 fold change” value: -0.262 for the first, -0.202 for the second.

In the case of RRIRTRPPRLPRPRPRPQFEPRP, the “shrunken log2 fold change” value is reported as 0.0219.
